In patent US10555963B2, “Klotho protein and related compounds for the treatment and diagnosis of cancer” (TEL HASHOMER MEDICAL RESEARCH INFRASTRUCTURE AND SERVICES …, priority 2007, dated 2020):

How the values were obtained:
MCF-7 cells = assay: MTT proliferation assay after klotho protein down-regulation by siRNA; assay type: cell-based, human; details: 48 h; compared to siRNAc; p<0.05
Protocol: (§1) Klotho protein directed stealth siRNA duplex oligoribonucleotides and control siRNAs were both designed and purchased from Invitrogen. Lipofectamine 2000 (Invitrogen), and was used to transfect the cells with 100 pmoles of siRNA.
The medium was aspirated, and the cells were dissolved by dimethyl sulfoxide (DMSO).
(§2) Three klotho protein-directed siRNAs were designed and tested for their ability to silence klotho protein expression in MCF-7 cells, compared to a control siRNA (siRNAc).

AKT in MCF-7 cells = assay: AKT phosphorylation after IGF-1 stimulation in klotho-silenced MCF-7 cells; assay type: cell-based, human; details: compared to siRNAc transfected cells
Excerpt: as §1
The effect of silencing of klotho protein in MCF-7 cells, using siRNA3, was also studied.

klotho protein mRNA = assay: Silencing of klotho protein expression by siRNA in MCF-7 cells (mRNA levels); assay type: cell-based, human; details: MCF-7 cells transfected with siRNA
Excerpt: as §1
For breast cell studies, total RNA was extracted using the RNA isolation kit (Sigma) and processed to cDNA with RevertAid (Fermentas, Vilnius, Lithuania). Primers were designed using Primer Express (Applied Biosystems, Foster City, Calif.) and synthesized by IDT (Coralville, Iowa). […].
as §2

Panc1 cells [1] = assay: MTT proliferation assay, soluble klotho protein and 5-FU; details: 5-FU 500 μM alone; 48 hr
Protocol: 3000 cells/well were plated in 96-well plates, cultured in the appropriate culture media, and treated for 48 hrs as indicated.
Medium alone served as control. 48 hr after incubation, cells were cultured for 2 hr with 500 μg/ml MTT reagent, the medium was aspirated, and the cells were dissolved in dimethyl sulfoxide (DMSO). Absorbance of the formazan product was measured by an enzyme-linked immunosorbent assay reader to provide a measure of viability.

[2] = Blood counts and chemistry of treated mice; assay type: in vivo; details: for glucose levels: after fasting, MiaPaCa2 xenograft experiment; for blood counts or liver function tests: data not shown; for hypophosphatemia in treated mice: mouse, in vivo
Protocol: The effects of sol-hKL and sol-hKL1 on blood counts and chemistry were also studied. For these studies, blood was withdrawn from control, sol-hKL-treated (2.5 μg/kg) or sol-hKL1-treated (10 μg/kg) mice, at the same day as sacrificing and tumor harvesting, following five weeks of treatment.

Panc1 cells [3] = assay: In vivo Panc1 tumors in athymic mice treated with sol-hKL or sol-hKL1; details: i.p. five days a week for five weeks; for tumor growth (tumor volume and weight): sol-hKL 2.5 μg/kg, sol-hKL1 10 or 25 μg/kg, p<0.05
Protocol: The in vivo growth inhibitory activity of sol-hKL1, compared to sol-hKL, on pancreatic cancer cells was examined (FIG. 17C-G). Panc1 cells were injected into one flank of athymic mice and mice were treated with intraperitoneal injections of either control vehicle (N=12), sol-hKL (2.5 μg/kg, N=7), or sol-hKL1 (10 μg/kg, N=6; 25 μg/kg, N=7), five days a week for five weeks. Weight of mice (FIG. 17C) and tumor volume (FIG. 17D) in control and treated groups were monitored weekly and tumor weight was measured on day of sacrifice (FIG. 17E).

MiaPaCa2 cells = assay: In vivo MiaPaCa2 tumors in athymic mice treated with sol-hKL or sol-hKL1; details: sol-hKL 2.5 μg/kg, sol-hKL1 10 μg/kg; for tumors completely regressed (number) / tumors completely regressed (percent): after four weeks
Protocol: A similar experiment, with minor differences, was also performed using MiaPaCa2 cells (FIGS. 17H, 17I). Cells were injected into both flanks of athymic mice and mice were treated with either a control vehicle (N=8), sol-hKL (2.5 μg/kg, N=8) or sol-hKL1 (10 μg/kg, N=8).

Panc1 cells [4] = assay: MTT viability assay, sol-hKL or sol-hKL1; assay type: cell-based, human; details: 48 hrs
Protocol: The activity of hKL1 was also tested. Panc1 cells were treated with either sol-hKL or sol-hKL1 for 48 hrs and viability was assessed after 48 hours by MTT assay (FIG. 17B).

[5] = tested on: IGF-1 pathway in Panc1 cells; assay: IGF-1 pathway in Panc1 cells treated with soluble klotho protein (immunoblot); assay type: cell-based, human; details: klotho 10 min, then IGF-1 12.5 nM, 15 min
Protocol: For pancreatic cells, protein extraction and Western blotting was performed as described (Wolf et al., 2008).
Since klotho protein is shed and may act as a circulating hormone, the ability of soluble klotho protein to inhibit activation of the IGF-1 pathway in Panc1 cells was tested. V5-tagged soluble klotho protein was generated as described [Kurosu H. et al., 2005]. Panc1 cells were treated with klotho protein for 10 min and stimulated with IGF-1 (12.5 nM, 15 min), and expression and phosphorylation of the IGF-1R, AKT and ERK1/2 was determined.

IGF-1R in MCF-7 cells = assay: IGF-1R phosphorylation in MCF-7 cells treated with soluble klotho protein; assay type: cell-based, human; details: klotho 15 min, then IGF-1 12.5 nM
Excerpt: Soluble klotho protein was generated essentially as described (Kurosu et al., 2005). In brief, insect cells, which stably express V5-tagged soluble klotho protein, were generated using the Drosophila Expression System (Invitrogen). A cDNA fragment encoding the entire extracellular domain of mouse Klotho protein (amino acid residues 31 to 982 of SEQ ID NO: 3) was inserted into a pMT/BiP/V5-His expression vector, allowing inducible expression from metallothionein promoter and secretion of the recombinant protein with V5 and 6×His tags at the C-terminus into conditioned medium. The expression vector was transfected into Drosophila Schneider cells by the calcium phosphate method together with pCoHYGRO selection vector. […]
As klotho protein may also be shed and act as a circulating hormone (Kuro-o et al., 1997; Matsumura et al., 1998), the ability of soluble klotho protein to inhibit activation of the IGF-1 pathway in MCF-7 cells was tested. V5-tagged soluble klotho protein was generated as described under “Materials and Methods”, its expression and purity were examined using Coomassie staining and its concentration was determined (data not shown). MCF-7 cells were treated with klotho protein for 15 min and, stimulated with IGF-1 (12.5 nM, 15 min), and expression and phosphorylation of the IGF-1R was determined.

[6] = five weeks of treatment, sol-hKL 2.5 μg/kg, sol-hKL1 10 μg/kg

Molecule | glucose levels [2] | blood counts or liver function tests [2, 6] | hypophosphatemia in treated mice [2] | changes in weight or general health of mice (Panc1 cells [3]) | tumor growth (tumor volume and weight) (Panc1 cells [3]) | tumors completely regressed (number) (MiaPaCa2 cells) | tumors completely regressed (percent) (MiaPaCa2 cells) [%] | further results
CACCAAGAGAGAUGAUGCCAAAUAU [siRNA3] |  |  |  |  |  |  |  | increase of proliferation of MCF-7 cells (MTT assay) (MCF-7 cells): 2.5 fold; AKT phosphorylation following IGF-1 stimulation (AKT in MCF-7 cells): increased; reduction of klotho protein expression (mRNA levels) (klotho protein mRNA): 88%
O=c1[nH]cc(F)c(=O)[nH]1 [5-FLU, 5-Fluorouracil] |  |  |  |  |  |  |  | reduction in viability (Panc1 cells [1]): 50%
sol-hKL1: Human KL1 (residues 34-549 of SEQ ID: 2) obtained from PeproTech Inc. (protein) EPGDGAQTWARFSRPPAPEAAGLFQGTFPDGFLWAVGSAAYQTEGGWQQHGKGASIWDTFTHHPLAPPGDSRNASLPLGAPSPLQPATGDVASDSYNNVFRDTEALRELGVTHYRFSISWARVLPNGSAGVPNREGLRYYRRLLERLRELGVQPVVTLYHWDLPQRLQDAYGGWANRALADHFRDYAELCFRHFGGQVKYWITIDNPYVVAWHGYATGRLAPGIRGSPRLGYLVAHNLLLAHAKVWHLYNTSFRPTQGGQVSIALSSHWINPRRMTDHSIKECQKSLDFVLGWFAKPVFIDGDYPESMKNNLSSILPDFTESEKKFIKGTADFFALCFGPTLSFQLLDPHMKFRQLESPNLRQLLSWIDLEFNHPQIFIVENGWFVSGTTKRDDAKYMYYLKKFIMETLKAIKLDGVDVIGYTAWSLMDGFEWHRGYSIRRGLFYVDFLSQDKMLLPKSSALFYQKLIEKNGFPPLPENQPLEGTFPCDFAWGVVDNYIQVSQLTKPISSLTKPYH | did not have any significant effect | did not affect | not | No changes | significantly inhibited tumor growth | four | 25 | tumor growth inhibition compared with sol-hKL (MiaPaCa2 cells): more effectively than sol-hKL; concentration for 50% viability reduction relative to sol-hKL (Panc1 cells [4]): 100 times; reduction of viability of Panc1 cells (Panc1 cells [4]; p<0.005 vs control): 50%
soluble klotho protein: V5-tagged entire extracellular domain of mouse Klotho protein (residues 31 to 982 of SEQ ID NO: 3) from Drosophila cells (protein, V5 tag) RCLSAEPGQGAQTWARFARAPAPEAAGLLHDTFPDGFLWAVGSAAYQTEGGWRQHGKGASIWDTFTHHSGAAPSDSPIVVAPSGAPSPPLSSTGDVASDSYNNVYRDTEGLRELGVTHYRFSISWARVLPNGTAGTPNREGLRYYRRLLERLRELGVQPVVTLYHWDLPQRLQDTYGGWANRALADHFRDYAELCFRHFGGQVKYWITIDNPYVVAWHGYATGRLAPGVRGSSRLGYLVAHNLLLAHAKVWHLYNTSFRPTQGGRVSIALSSHWINPRRMTDYNIRECQKSLDFVLGWFAKPIFIDGDYPESMKNNLSSLLPDFTESEKRLIRGTADFFALSFGPTLSFQLLDPNMKFRQLESPNLRQLLSWIDLEYNHPPIFIVENGWFVSGTTKRDDAKYMYYLKKFIMETLKAIRLDGVDVIGYTAWSLMDGFEWHRGYSIRRGLFYVDFLSQDKELLPKSSALFYQKLIEDNGFPPLPENQPLEGTFPCDFAWGVVDNYVQVDTTLSQFTDPNVYLWDVHHSKRLIKVDGVVAKKRKPYCVDFSAIRPQITLLREMRVTHFRFSLDWALILPLGNQTQVNHTVLHFYRCMISELVHANITPVVALWQPAAPHQGLPHALAKHGAWENPHTALAFADYANLCFKELGHWVNLWITMNEPNTRNMTYRAGHHLLRAHALAWHLYDDKFRAAQKGKISIALQADWIEPACPFSQNDKEVAERVLEFDIGWLAEPIFGSGDYPRVMRDWLNQKNNFLLPYFTEDEKKLVRGSFDFLAVSHYTTILVDWEKEDPMKYNDYLEVQEMTDITWLNSPSQVAVVPWGLRKVLNWLRFKYGDLPMYVTANGIDDDPHAEQDSLRIYYIKNYVNEALKAYVLDDINLCGYFAYSLSDRSAPKSGFYRYAANQFEPKPSMKHYRRIIDSNGFLGSGTLGRFCPEEYTVCTECGFFQTRK |  |  |  |  |  |  |  | phosphorylation of IGF-1R, AKT and ERK1/2 [5]: inhibited phosphorylation; phosphorylation of the IGF-1 receptor (IGF-1R in MCF-7 cells): inhibited
sol-hKL: Soluble human Klotho protein (hKL) obtained from R&D Systems (protein, UniProt Q9UEF7 34-981, looked up, extracellular domain, Soluble human Klotho protein (hKL) obtained from R&D Systems) extracellular domain: EPGDGAQTWARFSRPPAPEAAGLFQGTFPDGFLWAVGSAAYQTEGGWQQHGKGASIWDTFTHHPLAPPGDSRNASLPLGAPSPLQPATGDVASDSYNNVFRDTEALRELGVTHYRFSISWARVLPNGSAGVPNREGLRYYRRLLERLRELGVQPVVTLYHWDLPQRLQDAYGGWANRALADHFRDYAELCFRHFGGQVKYWITIDNPYVVAWHGYATGRLAPGIRGSPRLGYLVAHNLLLAHAKVWHLYNTSFRPTQGGQVSIALSSHWINPRRMTDHSIKECQKSLDFVLGWFAKPVFIDGDYPESMKNNLSSILPDFTESEKKFIKGTADFFALCFGPTLSFQLLDPHMKFRQLESPNLRQLLSWIDLEFNHPQIFIVENGWFVSGTTKRDDAKYMYYLKKFIMETLKAIKLDGVDVIGYTAWSLMDGFEWHRGYSIRRGLFYVDFLSQDKMLLPKSSALFYQKLIEKNGFPPLPENQPLEGTFPCDFAWGVVDNYIQVDTTLSQFTDLNVYLWDVHHSKRLIKVDGVVTKKRKSYCVDFAAIQPQIALLQEMHVTHFRFSLDWALILPLGNQSQVNHTILQYYRCMASELVRVNITPVVALWQPMAPNQGLPRLLARQGAWENPYTALAFAEYARLCFQELGHHVKLWITMNEPYTRNMTYSAGHNLLKAHALAWHVYNEKFRHAQNGKISIALQADWIEPACPFSQKDKEVAERVLEFDIGWLAEPIFGSGDYPWVMRDWLNQRNNFLLPYFTEDEKKLIQGTFDFLALSHYTTILVDSEKEDPIKYNDYLEVQEMTDITWLNSPSQVAVVPWGLRKVLNWLKFKYGDLPMYIISNGIDDGLHAEDDQLRVYYMQNYINEALKAHILDGINLCGYFAYSFNDRTAPRFGLYRYAADQFEPKASMKHYRKIIDSNGFPGPETLERFCPEEFTVCTECSFFHTRKS | mildly increased | did not affect | observed | No changes | significantly inhibited tumor growth | two | 12 | blood urea, cholesterol and phosphate levels [2, 6]: altered
